Where a chain is given by its changes, count along the chain named.

The values that follow come from patent US12252531B2, “Methods of screening for high-affinity, isoform-selective TGFβ1 inhibitors” (Scholar Rock, Inc., priority 2018, dated 2025).

The conditions of data set [1]: in vivo, cited from earlier work.
Data set [2] relates to LTBP1-proTGFβ1, LTBP3-proTGFβ1, GARP-proTGFβ1 and LRRC33-proTGFβ1 complexes. The experiment in a line: BLI (OCTET), binding profile and bias across the four complexes. Details: species or system human. As to conditions: ratio of average KD cell-associated / matrix-associated. The source says:
(§1) Column (A) of the table lists monoclonal antibodies with discrete amino acid sequences. […] Columns (B), (D), (E) and (F) provide affinities of each of the listed antibodies, measured in KD. […] Average KD values of (B) and (C) are shown in the corresponding column (D), which collectively represents affinities of the antibodies to ECM- or matrix-associated proTGFβ1 complexes. Similarly, Average KD values of (E) and (F) are shown in the corresponding column (G), which collectively represents affinities of the antibodies to cell-surface or cell-associated proTGFβ1 complexes. Finally, relative ratios between the average KD values from columns (D) and (G) are expressed as “fold bias” in column (H). Thus, the greater the number of column (H) is, the greater bias exists for the particular antibody, when comparing binding preferences of the antibody for matrix-associated complexes and cell-surface complexes. This is one way of quantitatively representing and comparing inherent bias of antibodies to their target complexes. Such analyses may be useful in guiding the selection process for a candidate antibody for particular therapeutic use.
(§2) The concept of “uniformity” or lack of bias is further illustrated in Table 8. Average KD values between the two matrix-associated and cell-associated complexes are calculated, respectively (see columns (D) and (G)). These average KD values can then be used to ask whether bias in binding activities exists between complexes associated with matrix vs. complexes associated with cell surface (e.g., immune cells). Bias may be expressed as “fold-difference”in the average KD values, as illustrated in Table 8.

Data set [3] deals with Matrix-associated proTGFb1 (hLTBP1, hLTBP3). Description: BLI (OCTET), average over matrix-associated complexes. The class given is binding, human. As to conditions: average KD of (B) and (C), read-out: (D) ECM AVRG.
Description: as §1, §2

For data set [4], the system named is Cell-associated proTGFb1 (hGARP, hLRRC33). The experiment in a line: BLI (OCTET), average over cell-associated complexes. The class given is binding, human. The note with it: average KD of (E) and (F), read-out: (G) Cell AVRG.
Description: as §1, §2

The target in data set [5] is Matrix-associated proTGFβ1 (hLTBP1, hLTBP3). The experiment in a line: MSD-SET, average over matrix-associated complexes. Format: binding, human. The note with it: average of (B) and (C), read-out: (D) ECM AVRG.
Description: as §1
(§3) Solution equilibrium titration (“SET”) is an assay whereby binding between two molecules (such as an antigen and an antibody that binds the antigen) can be measured at equilibrium in a solution. For example, Meso-Scale Discovery (“MSD”)-based SET, or MSD-SET, is a useful mode of determining dissociation constants for particularly high-affinity protein-protein interactions at equilibrium (see, for example: Ducata et al. (2015) J Biomolecular Screening 20(10): 1256-1267). The SET-based assays are particularly useful for determining KD values of antibodies with sub-nanomolar (e.g., picomolar) affinities.

In data set [6] the test system is hLTBP1-proTGFβ1, hLTBP3-proTGFβ1, hGARP-proTGFβ1 and hLRRC33-proTGFβ1. Description: MSD-SET, binding profile and bias across the four human LLCs. The note with it: ratio of average KD cell-associated / matrix-associated.
Description: Solution Equilibrium Titration (SET): The SET is an assay whereby binding between two molecules (such as an antigen and an antibody that binds the antigen) can be measured at equilibrium in a solution. For example, Meso-Scale Discovery (“MSD”)-based SET, or MSD-SET, is a useful mode of determining dissociation constants for particularly high-affinity protein-protein interactions at equilibrium, such as picomolar-affinity antibodies binding to their antigens (see, for example: Ducata et al. (2015) J Biomolecular Screening 20(10): 1256-1267). The SET-based assays are particularly useful for determining KD values of antibodies with sub-nanomolar (e.g., picomolar) affinities.
as §3
For solution equilibrium titration-based binding assays, protein complexes that comprise one of the presenting molecules such as those shown above may be employed as antigen (presenting molecule-TGFβ1 complex, or an LLC). Test antibodies are allowed to form antigen-antibody complex in solution. Antigen-antibody reaction mixtures are incubated to allow an equilibrium to be reached; the amount of the antigen-antibody complex present in the assay reactions can be measured by suitable means well known in the art. As compared to BLI-based assays, SET-based assays are less affected by on/off rates of the antigen-antibody complex, allowing sensitive detection of very high affinity interactions.

Data set [7] relates to Cell-associated proTGFβ1 (hGARP, hLRRC33). Description: MSD-SET, average over cell-associated complexes. The note with it: average of (E) and (F), read-out: (G) Cell AVRG. The class given is binding, human.
Description: as §1, §3

Turning to “GC1008: human analog of 1D11, pan-TGFβ antibody”, the “Exposure: DN Cmax” value in data set [1] (human) is recorded as “DN Cmax~(350 ng/mL)mg”. Further, the “previously reported adverse events (CTCAE grade)” value in data set [1] was “leukocytosis (grade 3), fatigue (grade 3), hypoxia (grade 3), asystole (grade 5), leukopenia (grade 1), recurrent, transient, tender erythematous, nodular skin lesions, suppurative dermatitis, and herpes zoster”.

B1: Ab21: proTGFβ1 antibody; VH SEQ ID NO: 129, VL SEQ ID NO: 15 (antibody, V domains shown)
VH: EVQLVESGGGLVQPGGSLRLSCAASGFTFSSFSMDWVRQAPGKGLEWVSYISPDASTIYYADSVKGRFTISRDNAKNSLYLQMNSLRAEDTAVYYCARGVLDYGDMLDPWGQGTLVTVSS
VL: DIQMTQSPSSLSASVGDRVTITCQASQDITNYLNWYQQKPGKAPKLLIYDASNLETGVPSRFSGSGSGTDFTFTISSLQPEDIATYYCQQADNHPPWTFGGGTKVEIK
Consider B1, for which, in data set [2], the “(H) G/D (fold bias)” value amounted to 2.613 fold. The Kd in data set [3] came out at 0.246 nM; in data set [4], 0.644 nM.

B2: Ab32: proTGFβ1 antibody; VH SEQ ID NO: 140, VL SEQ ID NO: 15 (antibody, V domains shown)
VH: B1 VH with D35N, D54S, S56D, S78T, L101W, Y103M
VL: B1 VL
For B2, the Kd is 0.032 nM in data set [5], 0.051 nM in data set [7], 0.242 nM in data set [3] and 0.597 nM in data set [4]. For the same molecule, the entries for the “(H) G/D (fold bias)” value in data set [6] and in data set [2] were 1.60 fold and 2.467 fold, respectively.

B3: Ab28: proTGFβ1 antibody; VH SEQ ID NO: 136, VL SEQ ID NO: 15 (antibody, V domains shown)
VH: B1 VH with A97V
VL: B1 VL
For the molecule B3, in data set [2], the “(H) G/D (fold bias)” value was determined as 1.838 fold. For the same molecule, the Kd in data set [3] turned out to be 0.328 nM; in data set [4], 0.603 nM.

B4: Ab24: proTGFβ1 antibody; VH SEQ ID NO: 132, VL SEQ ID NO: 15 (antibody, V domains shown)
VH: B1 VH with G16R, S33A, D35Y
VL: B1 VL
Turning to B4, the Kd is 0.023 nM in data set [5], 0.1 nM in data set [7], 0.222 nM in data set [3] and 0.537 nM in data set [4]. The entries for the “(H) G/D (fold bias)” value in data set [6] and in data set [2] were 4.35 fold and 2.421 fold, respectively.

B5: Ab30: proTGFβ1 antibody; VH SEQ ID NO: 138, VL SEQ ID NO: 15 (antibody, V domains shown)
VH: B1 VH with V100T
VL: B1 VL
On to B5, for which the Kd in data set [5] amounted to 0.029 nM; in data set [7], 0.081 nM; in data set [3], 0.296 nM; in data set [4] it was 0.684 nM. The “(H) G/D (fold bias)” value in data set [6] is given as 2.80 fold; in data set [2] it was 2.307 fold.

B6: Ab23: proTGFβ1 antibody; VH SEQ ID NO: 131, VL SEQ ID NO: 15 (antibody, V domains shown)
VH: B1 VH with D35N, D54S, S56D, S78T
VL: B1 VL
On to B6, for which the “(H) G/D (fold bias)” value in data set [2] is 2.028 fold. Also, the results for the Kd in data set [3] and in data set [4] were 0.443 nM and 0.897 nM, respectively.

B7: Ab31: proTGFβ1 antibody; VH SEQ ID NO: 139, VL SEQ ID NO: 15 (antibody, V domains shown)
VH: B1 VH with S78T, G99A
VL: B1 VL
Turning to B7, the Kd came to 0.017 nM in data set [5], 0.058 nM in data set [7], 0.208 nM in data set [3] and 0.495 nM in data set [4]. Further, the entries for the “(H) G/D (fold bias)” value in data set [6] and in data set [2] were 3.41 fold and 2.376 fold, respectively.

B8: Ab22: proTGFβ1 antibody; VH SEQ ID NO: 130, VL SEQ ID NO: 15 (antibody, V domains shown)
VH: B1 VH with S30G, D35N, S52H, P53S
VL: B1 VL
Take B8: the Kd amounted to 0.042 nM in data set [5], 0.114 nM in data set [7], 0.324 nM in data set [3] and 0.695 nM in data set [4]. Besides, the “(H) G/D (fold bias)” value was determined as 2.71 fold in data set [6] and 2.147 fold in data set [2].

B9: Ab29: proTGFβ1 antibody; VH SEQ ID NO: 137, VL SEQ ID NO: 15 (antibody, V domains shown)
VH: B1 VH with G16R, S33A, D35N, D62G, A97V, G99A
VL: B1 VL
On to B9, for which the “(H) G/D (fold bias)” value in data set [6] is 2.00 fold; in data set [2], 1.965 fold. Moreover, the Kd in data set [7] came to 0.024 nM; in data set [3] it was 0.155 nM; in data set [4], 0.304 nM.

B10: Ab33: proTGFβ1 antibody; VH SEQ ID NO: 141, VL SEQ ID NO: 15 (antibody, V domains shown)
VH: B1 VH with D35N, D54S, S56D, S78T, R98H
VL: B1 VL
As to B10, the Kd in data set [5] amounted to 0.009 nM; in data set [7], 0.027 nM; in data set [3], 0.145 nM; in data set [4] it was 0.302 nM. Besides, the results for the “(H) G/D (fold bias)” value in data set [6] and in data set [2] were 3.00 fold and 2.083 fold, respectively.

B11: Ab26: proTGFβ1 antibody; VH SEQ ID NO: 134, VL SEQ ID NO: 15 (antibody, V domains shown)
VH: B1 VH with S78T
VL: B1 VL
Consider B11, for which the Kd stood at 0.026 nM in data set [5], 0.072 nM in data set [7], 0.197 nM in data set [3] and 0.492 nM in data set [4]. The “(H) G/D (fold bias)” value in data set [6] came to 2.77 fold; in data set [2] it was 2.500 fold.

B12: Ab25: proTGFβ1 antibody; VH SEQ ID NO: 133, VL SEQ ID NO: 15 (antibody, V domains shown)
VH: B1 VH with S30G
VL: B1 VL
For the molecule B12, the “(H) G/D (fold bias)” value in data set [2] was 2.431 fold. For the same molecule, the Kd in data set [3] came out at 0.184 nM; in data set [4] it was 0.449 nM.

B13: Ab27: proTGFβ1 antibody; VH SEQ ID NO: 135, VL SEQ ID NO: 15 (antibody, V domains shown)
VH: B1 VH with S31F, F32Y, S33A, D35N
VL: B1 VL
For the molecule B13, in data set [2], the “(H) G/D (fold bias)” value is listed as 1.738 fold. Also, the Kd in data set [3] came to 0.208 nM; in data set [4] it was 0.361 nM.
